Experimental data reported in article PMC2908218.

Molecular target: conventional myosin (Caenorhabditis elegans) (UniProt P02566)
Experiment: ELISA

Chain of UniProt P02566 (P02566 whole entry): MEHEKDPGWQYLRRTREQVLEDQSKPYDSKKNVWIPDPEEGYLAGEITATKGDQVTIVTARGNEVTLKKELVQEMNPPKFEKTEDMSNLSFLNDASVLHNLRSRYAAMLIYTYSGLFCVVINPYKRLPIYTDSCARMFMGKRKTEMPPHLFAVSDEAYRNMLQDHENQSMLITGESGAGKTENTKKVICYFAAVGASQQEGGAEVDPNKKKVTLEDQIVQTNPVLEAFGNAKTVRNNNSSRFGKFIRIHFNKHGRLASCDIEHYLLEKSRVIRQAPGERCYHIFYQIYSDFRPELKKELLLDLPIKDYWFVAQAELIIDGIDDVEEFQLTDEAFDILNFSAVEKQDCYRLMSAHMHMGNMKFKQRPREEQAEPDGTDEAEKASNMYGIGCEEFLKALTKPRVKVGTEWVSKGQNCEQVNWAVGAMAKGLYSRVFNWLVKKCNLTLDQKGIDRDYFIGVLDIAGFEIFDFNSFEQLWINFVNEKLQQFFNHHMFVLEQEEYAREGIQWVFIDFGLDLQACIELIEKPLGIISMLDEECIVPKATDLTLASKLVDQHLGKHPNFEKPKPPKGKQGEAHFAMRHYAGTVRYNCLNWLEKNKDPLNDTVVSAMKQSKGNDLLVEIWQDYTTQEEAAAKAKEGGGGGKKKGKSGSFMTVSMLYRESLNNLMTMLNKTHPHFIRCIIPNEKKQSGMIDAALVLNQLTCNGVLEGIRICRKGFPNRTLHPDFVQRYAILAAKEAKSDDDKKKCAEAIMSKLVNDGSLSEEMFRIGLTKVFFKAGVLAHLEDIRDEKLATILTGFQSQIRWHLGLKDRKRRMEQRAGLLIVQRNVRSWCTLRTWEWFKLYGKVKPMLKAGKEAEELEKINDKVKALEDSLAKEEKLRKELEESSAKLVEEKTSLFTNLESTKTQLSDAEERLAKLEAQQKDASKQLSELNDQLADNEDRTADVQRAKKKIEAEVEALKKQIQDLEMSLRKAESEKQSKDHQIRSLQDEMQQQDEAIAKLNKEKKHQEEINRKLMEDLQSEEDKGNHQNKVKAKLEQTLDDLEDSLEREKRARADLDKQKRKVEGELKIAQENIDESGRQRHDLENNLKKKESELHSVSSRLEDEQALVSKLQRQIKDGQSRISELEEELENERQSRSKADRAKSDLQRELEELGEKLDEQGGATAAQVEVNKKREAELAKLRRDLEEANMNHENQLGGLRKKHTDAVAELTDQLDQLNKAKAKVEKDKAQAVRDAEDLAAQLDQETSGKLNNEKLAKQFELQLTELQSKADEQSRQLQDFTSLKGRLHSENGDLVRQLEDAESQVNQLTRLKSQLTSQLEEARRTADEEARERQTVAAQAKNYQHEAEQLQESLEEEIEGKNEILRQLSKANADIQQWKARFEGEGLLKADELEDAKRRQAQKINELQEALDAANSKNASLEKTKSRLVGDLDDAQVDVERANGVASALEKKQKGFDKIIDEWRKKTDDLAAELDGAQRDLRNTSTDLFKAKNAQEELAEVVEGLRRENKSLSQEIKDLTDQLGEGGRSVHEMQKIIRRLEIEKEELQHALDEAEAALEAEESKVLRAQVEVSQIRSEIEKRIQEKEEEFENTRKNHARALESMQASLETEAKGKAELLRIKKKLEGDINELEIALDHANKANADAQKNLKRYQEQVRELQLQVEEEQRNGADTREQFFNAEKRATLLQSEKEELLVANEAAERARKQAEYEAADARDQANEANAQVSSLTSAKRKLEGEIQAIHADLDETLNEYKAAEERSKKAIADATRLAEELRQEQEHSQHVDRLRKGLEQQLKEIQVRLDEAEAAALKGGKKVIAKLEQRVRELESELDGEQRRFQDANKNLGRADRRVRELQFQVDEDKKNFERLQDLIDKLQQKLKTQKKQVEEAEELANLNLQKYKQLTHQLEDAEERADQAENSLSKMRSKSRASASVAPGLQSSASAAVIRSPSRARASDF

Kd: 1.5 nM
Substance: TTN-1 fragment 11/12 Ig38-Ig39-Ig40 (from UniProt G4SLH0)
